# Data taken from the RNAGym collection of RNA variant scans (doi:10.7554/elife.80360).
# B1: Hairpin Ribozyme (parent)
# chain: GUCCUCUUUCACGUGCGCGUGAAAGAGAGAAGUGAACCAGAGAAACACACGUUGUGGUAUAUUACCUGGUA
# Variants of: B1
# Assay: self-cleavage, relative activity (ratio to wild type); higher = more cleavage; co-transcriptional
row,Variant,self-cleavage
1,GUCCUCUUUCACGUGCGCGUGAAAGAGAGAAGUGAACCAGAGAAACACAGGUAGUGGUAUAUUACCUGGUA,0.251
2,GUCCUCUUUCACGUGCGCGUGAAAGAGAGAAGUGAACCAGAGAAACACACGCUGUGGUAUAUUACCUGGUA,0.97
3,GUCCUCUUUCACGUGCGCGUGAAAGAGAGAAUUGAACCAGAGAAAUACACGUUGUGGUAUAUUACCUGGUA,0.276
4,GUCCUCUUUCACGUGCGCGUGAAAGAUAGAAGUGAACCAGAGAAACACACGUUGUGGUAUAUUACCUGGCA,0.105
5,GUCCUCUUUCACGUGCGCGUGAAAGAUAGAAGUGAACCAGAGAAACAGACGUUGUGGUAUAUUACCUGGUA,0.137
6,GUCCUCUUUCACGUGCGCGUGAAAGAGAGAAGUGAACCAGAGAAGCACACGUUAUGGUAUAUUACCUGGUA,0.218
7,GUCCUCUUUCACGUGCGCGUGAAAGAGAGAAGUGAACCAGAGAAACAUACGUUGUGGUCUAUUACCUGGUA,0.222
8,GUCCUCUUUUACGUGCGCAUGAAAGAGAGAAGUGAACCAGAGAAACACACGUUGUGGUAUAUUACCUGGUA,0.588
9,GUCUUCUUUCACGUGCGCGUGAAAGAGAGAAGUGAACCAGAGAAACACACGUUGUGGUAUGUUACCUGGUA,0.169
10,GUCCUCUUUCACGUGCGCGUUAAAGAGAGAAGUGAACCAGAGAAACACACGUUGUGGUAUAUUACGUGGUA,0.123
11,GUCCUCAUUCACGUGCGCGUGAAAGAGAGACGUGAACCAGAGAAACACACGUUGUGGUAUAUUACCUGGUA,0.0614
12,GUCCUCUUUCACGUGCGCGUGAAAGAGAGAAGUGAACAAGAGAAACUCACGUUGUGGUAUAUUACCUGGUA,0.0951
13,GUCCUCUUUCACGUGCGCGUGAAAGAGAGAAGUGAACCAGAGAAACACACGUUGUGGUAUUUUAACUGGUA,0.107
14,GUCCUCUUUCACGUGCGCGUGAAAGAGAGAAGUGAACCAGAGAAUCACACGUUGUGGUAUCUUACCUGGUA,0.0246
15,GUCCUCUUUCACGUGCGCGUGAAAGAGAGAAGGGAACCAGAGAAACACACGUUGUGGUAUAUUACCGGGUA,0.0324
16,GUCCUCUUUCACGUGCGCGUGAAAGAGAGAAGUGAACCAGAGAAACACAUGUUGUGGUAUAUUACCUCGUA,0.246
17,GUCCUCUUUCACGUGCGCGUGAAAGAGAGAAGUGAACUAGAGAAACACACGGUGUGGUAUAUUACCUGGUA,0.261
18,GUCCUCUUUCACGUGCGCGUGAUGGAGAGAAGUGAACCAGAGAAACACACGUUGUGGUAUAUUACCUGGUA,0.587
19,GUCCUCUUGCACGUGCGCGUGAAGGAGAGAAGUGAACCAGAGAAACACACGUUGUGGUAUAUUACCUGGUA,0.672

row,Variant,self-cleavage
1,GUCCUCUUUCACGUGCGCGUGAAAGAGAGAAGUGAACCAGAGCAACACCCGUUGUGGUAUAUUACCUGGUA,0.199
2,GUCCUCUUUCACGUGCGCGUGAAAGAGAGAAGUGUAUCAGAGAAACACACGUUGUGGUAUAUUACCUGGUA,0.457
3,GUCCUCUUUCACGUGCGCGUGAAAGAGAUAAGUGAACCAGAGAAACACACGUUGUGUUAUAUUACCUGGUA,0.149
4,GUCCUCUUUCACGUGCGCGUGAAAGAGAGAAGUAAACCAGAGAAACACACGUUGUAGUAUAUUACCUGGUA,0.252
5,GUCCUCUUUCACGUGCGCGUGAAAGAGAGAAGUGAACAAGAGAAACAAACGUUGUGGUAUAUUACCUGGUA,0.14
6,GUCCUCUUUCACGUGCGCGUAAAAAAGAGAAGUGAACCAGAGAAACACACGUUGUGGUAUAUUACCUGGUA,0.239
7,GUCCUCUUUCACGUGCGCGUGAAAGAGAGAAGUGAACCAGAGAUACACACGUUGUGGUAUAGUACCUGGUA,0.0672
8,GUCCUCUUUCACAUGCGCGUGAAAGAGAGAAGUGACCCAGAGAAACACACGUUGUGGUAUAUUACCUGGUA,0.533
9,GUCCUCUUUCAGGUGCACGUGAAAGAGAGAAGUGAACCAGAGAAACACACGUUGUGGUAUAUUACCUGGUA,0.913
10,GUCCUCUUUAACGUGCACGUGAAAGAGAGAAGUGAACCAGAGAAACACACGUUGUGGUAUAUUACCUGGUA,0.622
11,GUCCUCUUUCACGUGCGCGUGAAAGAGAGAAGUGACCCAGAGAAACACACGUUGUCGUAUAUUACCUGGUA,0.186
12,GUCCUCUGUCACGUGCGCGUGAAAGAGAGAAGUGAACCAGAGAAACAAACGUUGUGGUAUAUUACCUGGUA,0.146
13,GUCCUCUUUCACGUGCGCGUGAAAGAGAGAAGUGAACCAGAGAAACACACUUUGUGGUAUAUGACCUGGUA,0.16
14,GUCCCCUUUCACGUGCGCGUGAAAGAGAGAAGUGAACCAGAGAAACACACGUUGUCGUAUAUUACCUGGUA,0.159
15,GUCCUCUUUCACGUGCGAGCGAAAGAGAGAAGUGAACCAGAGAAACACACGUUGUGGUAUAUUACCUGGUA,0.97
16,GUCCUCUUUCACGUGCGCGUGAAAGACAGAAGUGAACCAGAGAAACACACGUUGUGGUUUAUUACCUGGUA,0.16
17,GUCCCCUUUCACGUGCGCGUGAAAGAGAGAAGUGAAGCAGAGAAACACACGUUGUGGUAUAUUACCUGGUA,0.205
18,GUCGUCUUUCACGUACGCGUGAAAGAGAGAAGUGAACCAGAGAAACACACGUUGUGGUAUAUUACCUGGUA,0.216
19,GUCCUCUUUCACGUGUGCGUGAAAGAGAGAGGUGAACCAGAGAAACACACGUUGUGGUAUAUUACCUGGUA,0.742
